Experimental data reported in the supplement of paper PMC11865577.

Experiments:
Assay in all cases: pull-down binding Z-score (relative to library population); higher = stronger binding
[1] = system: G-clamp-N3 (biotin conjugate); settings: RNA library: Library-1 (pre-miRNA loops + repeats)
In short: (§1)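 Binding is given as a Z-score against the library mean and standard deviation, calculated after removing the beads-only signal and averaging barcoded replicate probes without their highest and lowest values. Cy5- or Cy3-end-labelled RNA library (1 μg) was heat-folded in phosphate/NaCl/KCl buffer and incubated 60 min at 25 °C with streptavidin beads bearing 100 pmol of biotin-conjugated small molecule. After three washes, RNA eluted in hot SDS was hybridised to a DNA barcode microarray for 20 h at 55.5 °C.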

[2] = system: TO-3-N3 (biotin conjugate); settings: RNA library: Library-2
In short: as §1

[3] = system: TO-3-N3-2 (biotin conjugate); settings: RNA library: Library-2
In short: as §1

TO-N3 (biotin conjugate) = settings: RNA library: Library-2
In short: as §1

[4] = system: TO-N3-2 (biotin conjugate); settings: RNA library: Library-2
In short: as §1

Sequence | pull-down binding Z-score [1] | pull-down binding Z-score [2] | pull-down binding Z-score [3] | pull-down binding Z-score (TO-N3 (biotin conjugate)) | pull-down binding Z-score [4]
UGGGUAGAAAGUAUUAUUCUAUUCA [hsa-mir-664b] | -0.0123 | 0.0201 | -0.0975 | -0.28 | -0.83
AGAGGCUGUGGGCAGGGGGAGAUGUGAAGGAAAGAACUAGGACCCAUUCAUCCACU [hsa-mir-6807] | 0.739 | 2.51 | 2.57 | 2.97 | 2.79
AAGCUCUUGCAGUAGGUUU [hsa-mir-1206] | 0.242 | -0.604 | -0.358 | -0.46 | -0.369
GCAGCCUUGC [hsa-mir-4298] | 0.364 | 0.177 | -0.244 | 0.264 | 0.0238
GUUGGGAUUGAGUUUUGAACUCGGC [hsa-mir-196a-2] | 0.29 | 0.00707 | -0.0929 | -0.0442 | -0.0161
UGAACAGUGAUUGGUUUCCGCUUUGUUCA [hsa-mir-27b] | -0.672 | 0.138 | 0.275 | 0.133 | -0.317
GCCAGUGUGUAAAAUGAGAACUGAUA [hsa-mir-3074] | 0.474 | 0.677 | 0.757 | 1.14 | 1.66
GAGCUGGGUGGGGUGCCAAGCCU [hsa-mir-6819] | 1.38 | 2.3 | 1.71 | 2.43 | 2.06
GAUGGGAUUAGAAACCAUAUGUCUCAUC [hsa-mir-3617] | 0.264 | 0.0209 | -0.165 | -0.25 | -0.438
AAUUUUGAUGAGUAUCAUAGGAGAAAAAUU [hsa-mir-363] | 1.49 | -0.302 | 0.27 | -0.184 | 0.542
GAGGGGCAUGCACUGUGUUCACCCUG [hsa-mir-134] | -0.276 | 0.47 | -0.0434 | 0.687 | 0.807
CAGGGCGGUGCGGCAGCCGCCACC [hsa-mir-3621] | -0.214 | 0.771 | 0.241 | 1.07 | 1.24
AUGGGAGCCCAGAGACGUCCUAU [hsa-mir-8074] | 0.253 | -0.304 | -0.433 | 0.0134 | 0.669
GGCUGCAGGCCCGGCCCCUCUC [hsa-mir-6787] | 0.112 | 0.378 | 0.126 | 1.1 | 1.59
UGGAGGCUGCAGUGAGCCGAGAUCGAGCCACUGUACUCCA [hsa-mir-1273e] | 0.0244 | 0.259 | -0.0556 | 1.14 | 1.09
AAGUUCCCUCUGGCUGGAAC [hsa-mir-1249] | -0.433 | 0.574 | -0.021 | 0.559 | 0.112
AGUGCUAGGACACU [hsa-mir-374c] | -0.247 | -0.441 | -0.413 | -0.616 | -0.579
GGCCAUCUGGCC [hsa-mir-4252] | 0.63 | -0.403 | -0.435 | -0.667 | -1.01
GCUGGGCUGAGCUAACCAGGGCUGGGCUGAGC [hsa-mir-4537] | 0.991 | 0.138 | -0.0332 | 0.532 | 1.42
UUUUAGAA [hsa-mir-4443] | -1.3 | -0.568 | -0.535 | -0.913 | -1.35
CUGUGAUAACAACUCAG [hsa-mir-4705] | -1.06 | 0.564 | -0.23 | 0.29 | -0.508
GGGUCAGGUCUGCAGCCUUGUAUCUGCUGAUCC [hsa-mir-6881] | -0.0593 | -0.183 | -0.227 | -0.234 | -0.107
UGUGUGCUGAGAAAAUUCACACA [hsa-mir-5580] | -0.421 | 0.00215 | 0.149 | -0.125 | -0.274
AAGUAAUUGUUUCUAAUGUACU [hsa-mir-412] | 0.96 | -0.549 | 0.0532 | 0.00941 | 0.583
UCAGCUGUGAGCUCAAGGUGGCUGG [hsa-mir-30c-1] | 1.32 | 0.424 | 0.093 | 0.804 | 0.98

Sequence | pull-down binding Z-score [1] | pull-down binding Z-score [2] | pull-down binding Z-score [3] | pull-down binding Z-score (TO-N3 (biotin conjugate)) | pull-down binding Z-score [4]
AGAAAAUUUUUCUCCAAAGUUUUCU [hsa-mir-4659b] | -0.123 | -0.634 | -0.443 | -1.06 | -1.66
CCUCCCUAGGGGAUCCCAGGUAGG [hsa-mir-4688] | -0.606 | 0.295 | -0.168 | 0.0963 | -0.0612
CAGAGGCUGGCUUUCCAAAACUCUG [hsa-mir-1913] | -0.379 | 0.996 | 0.266 | 0.884 | 0.235
UGAGCAUUUUUACUGAAUUGCCA [hsa-mir-6715a] | 0.49 | -0.582 | -0.268 | -0.738 | -0.686
ACAGAGUGAGAUGGUCUUGUUUUGU [hsa-mir-5684] | 0.00683 | -0.542 | -0.409 | -0.673 | -0.546
CCAGGCCACAUAAUGAGCCAAA [hsa-mir-6771] | -1.04 | 0.665 | 0.198 | 0.899 | 0.607
CUUGGCUUCAAUUUACUCCCAGG [hsa-mir-4446] | -1.06 | 0.257 | -0.0843 | 0.101 | 0.323
AUAUAAGGGAAGGCAUUAUAG [hsa-mir-3117] | 0.00615 | 0.00808 | 0.0974 | 0.0219 | -0.234
UGUUUAUGUUAUUUAUGGUUAAACA [hsa-mir-376c] | 0.239 | -0.655 | -0.269 | -0.887 | -0.967
UUCUCUUUAUUUAUGAUGAA [hsa-mir-494] | -1.25 | -0.968 | -0.639 | -1.56 | -1.8
CCCCGCGCGCGGACAGACACACGGACAAGUCCCGCCAGGGG [hsa-mir-4492] | -0.362 | -0.131 | -0.38 | 1.59 | 4.65
GCCUUUCAACAUAAUGGC [hsa-mir-548w] | 1.21 | -0.0045 | -0.214 | -0.352 | -0.827
AGUUGGACACUCCAUGUGGUAGAGUGUC [hsa-mir-223] | 0.453 | 0.617 | -0.0653 | 0.563 | 0.0461
CACUUUCUGCUCUCUGGUGAAAGUG [hsa-mir-371a] | 0.951 | 0.0211 | -0.0736 | -0.0106 | -0.309
AACUGUGCGGCCGGCCACACCGUCACACCGGGU [hsa-mir-8083] | -0.324 | 1.14 | 0.611 | 1.44 | 1.28
AUUCAGACUCAGGU [hsa-mir-921] | -0.651 | -0.232 | -0.0856 | -0.204 | -0.0427
AUGGCAUUUAAGGAUUGCUAU [hsa-mir-4477a] | 0.671 | -0.716 | -0.473 | -0.893 | -0.675
AGAUCUAUGUCAUAUAUACAGAUAU [hsa-mir-3924] | -0.51 | 0.902 | 0.268 | 0.742 | -0.356
UGCCAUACUUUUAACGGCA [hsa-mir-548i-4] | -0.464 | -0.727 | -0.272 | -1.09 | -1.06
GUGGAGGUAGGCGAGAGUAAUAUAAUUUCUCCAGGAGAACAUCUGAGAGGGGAAGUUGCUUUCCUGCCCUGGCCCUUUCAC [hsa-mir-6076] | -0.319 | 0.431 | 0.000368 | 0.735 | 1.37
UAUAUUCGGUUUAUUGACAUGGAAUAUA [hsa-mir-381] | 2.02 | 0.718 | 0.106 | 0.706 | -0.284
CGCUGCCUGGAAUUAACCCCGCUGUG [hsa-mir-636] | -1.15 | 0.493 | -0.249 | 0.517 | 0.891
AUAUAGAUAUCAGCUACCUAUAU [hsa-mir-3144] | -0.95 | -0.694 | -0.329 | -1.06 | -1.38
CUUUCUGUGACUUUAAAAGUAAG [hsa-mir-302b] | -0.444 | -0.538 | -0.355 | -0.844 | -0.999
AGAUCUGUCUCUGAUUGUUUCCAAGAUCU [hsa-mir-6888] | -0.781 | 0.132 | 0.0544 | 0.136 | 0.0817

Sequence | pull-down binding Z-score [1] | pull-down binding Z-score [2] | pull-down binding Z-score [3] | pull-down binding Z-score (TO-N3 (biotin conjugate)) | pull-down binding Z-score [4]
UGCUUUACUUUUAAUGGCA [hsa-mir-548k] | -0.352 | -0.819 | -0.358 | -1.15 | -1.34
ACCUGUGUGUGCCCAAGUGUUUCUAGCAAACACAGGG [hsa-mir-3649] | 0.215 | 0.76 | 0.425 | 0.757 | 0.193
AGAACAUUCGUUCACUUUCCU [hsa-mir-6747] | -1.1 | -0.352 | -0.29 | -0.404 | -0.376
CUGGGUCCUCUGUGCAGGGUCUUACCCAG [hsa-mir-7850] | -0.833 | -0.3 | -0.415 | -0.253 | 0.337
AGGCCGUUGCCAAUCAGAGAACGGCUA [hsa-mir-138-1] | -0.677 | 1.23 | 0.52 | 1.47 | 1.43
GUGCACUUCAUUUACGAUGUAG [hsa-mir-1193] | -0.679 | 0.515 | 0.167 | 0.741 | 0.478
GGAGCUCAGCACCUGCCUGCCACCCACGCAGACCAGCCCCUGCUCUGUUCCCACAG [hsa-mir-4648] | -0.622 | 0.85 | 0.329 | 1.56 | 1.9
UGUGCCUGCCUUCGAAGUGCACGGCAGG [hsa-mir-4297] | -0.529 | 0.105 | 0.00697 | 0.519 | 0.753
UUGCUUAAG [hsa-mir-924] | -0.513 | 0.586 | -0.269 | 0.3 | -0.696
GGAGCUCUGUCCUGUCUCACUCAUUGCUCC [hsa-mir-6749] | -0.199 | -0.331 | -0.272 | -0.473 | 0.177
GUGAGUUAGAAAAGCUCAAUUCAC [hsa-mir-4457] | -0.276 | -0.654 | -0.365 | -0.662 | -0.405
UUCCGGUGAUUAUCACAGCCAUGCCUUUACCUCCAGAA [hsa-mir-4493] | -0.101 | -0.84 | -0.0994 | -0.594 | -0.00535
CUAAAUGGUACCCACUUUAUUUAG [hsa-mir-5687] | -0.726 | -0.627 | -0.0559 | -0.76 | -0.639
CUGGAGUCGCCUGAGUCAUCACUCAG [hsa-mir-3065] | -0.66 | -0.142 | -0.276 | 0.0597 | 0.525
AGGGCAGGGGUGUGGCU [hsa-mir-4751] | 0.725 | 3.21 | 2.67 | 2.8 | 1.93
UCGGCACUAUUGUGACUGU [hsa-mir-7855] | -0.0938 | 0.693 | -0.16 | 0.611 | 0.0889
CAUGUGCUGAGUUCGUGCCAUAUG [hsa-mir-654] | 0.492 | -0.615 | -0.228 | -0.299 | 0.41
GGUGGUUGUGGGAGUCACU [hsa-mir-4418] | -0.575 | 1.58 | 1.89 | 2.18 | 1.93
UACAAUUUUUUUUUUUUUAAAUUUUA [hsa-mir-1303] | 0.8 | -0.51 | 0.111 | -0.893 | -1.17
AGCUUUAUGUAUUCUGAAGUUAUUGAAAAUAAGAGCU [hsa-mir-3140] | -0.628 | -0.877 | -0.254 | -1.1 | -0.911
CUAGUAUGUCUCAUCCCCUACUAG [hsa-mir-151a] | 0.0263 | -0.144 | -0.201 | -0.343 | 0.072
GAAUGAAAAAAUGAAUCAUC [hsa-mir-421] | 0.509 | -0.311 | 0.0689 | -0.29 | -0.0724
AAGACACUAUCUUACAACAACAGGGCUCUU [hsa-mir-550b-1] | 0.13 | 1.17 | 0.281 | 1.01 | 0.298
UUCUCGGUUGGCCGCAGACUCGUACAAGAA [hsa-mir-219b] | 0.895 | -0.383 | 0.0156 | 0.0802 | 0.724
GGGCCUGGGUUUCUGAACAC [hsa-mir-196a-1] | 0.486 | 0.328 | 0.334 | 0.611 | 0.762
